The values below come from patent US20220112288A1 (published 2022).

First the molecules themselves.
B1: 75110_01A06A (antibody, V domains shown)
VH: EVQLVESGGGLVQPGGSLRLSCAASGFTFSSYWMSWVRQAPGKGLEWVANINEDGNEKYYVDSVKGRLTISRDNAKNSLYLQMNSLRAEDTAVYFCAREGGQWLSLDYWGQGALVTVSS
VL: DIQMTQSPSSVSASVGDRVSITCRASQGISSWLAWYQQKPGKAPKILIYGASSLQSGVPSRFSGSGSGTDFTLTISSLQPEDFATYYCQQANSFPWTFGQGTKVEIK
notes: Tested as antibody purified from AlivaMab Mouse hybridoma supernatant (captured by anti-mouse IgG Fc)
B2: 75110_01H18A (antibody, V domains shown)
VH: QVQLQQWGAGLLKPSETLSLTCAVYGGSFSGYYWSWIRQSPGKGLEWIGEINQSGSTNYNPSLKSRVTISVDTSKNQFSLKLSSVTAADTAVYYCARVINWFDSWGQGTLVTVSS
VL: DIQMTQSPSSVSASVGDRVTITCRASQGISSWLAWYQQKPGKAPKLLIYAASSFQSGVPSRFSGSGSGTDFTLTISSLQTEDFATYYCQQANSFPYTFGQGTRLEIK
notes: as for B1
B3: 75110_01J09A (antibody, V domains shown)
VH: EVQLVESGGGLVQPGGSLRLSCVASGFTFSSYWMSWVRQAPGKGLEWVANTKEDGSDKYYVDSVKGRFTICRDNAKNSLYLQMNSLRAEDTAVYYCAREGGQWLALDYWGQGTLVTVSS
VL: DIQMTQSPSSVSASVGDRVTINCRASQGISSWLAWYQQKPGKAPNLLIFGASSLQSGVPSRFSGSGFGTDFSLTITTLQPEDFATYHCQQANSFPWTFGQGTKVEIK
notes: as for B1
B4: 75110_03C01A (antibody, V domains shown)
VH: QVQLQQWGAGLLKPSETLSLTCAVYGGSFSGYYWSWIRQSPGKGLEWIGEINQSGSTNYNPSLKSRVTISVDTSKDQFSLKLSSVTAADTAVYYCARVINWFDSWGQGSLVTVSS
VL: DIQMTQSPSSVSASVGDRVTITCRASQGISSWLAWYQQKPGNAPKLLIYDASSFQSGVPSRFSGSGSGTDFTLTISSLQTEDFATYYCQQANSFPYTFGQGTKLEIK
notes: as for B1
B5: 75110_02N15A (antibody, V domains shown)
VH: EVQLVESGGGLVQPGGSLRLSCAASGFTFSSYWMSWVRQAPGKGLEWVANINEDGNEKYYVDSVKGRFTISRDNAKNSLFLQMNSLRAEDTAVYFCAREGGQWLALDHWGQGALVTVSS
VL: DIQMTQSPSSVSASVGDRVTITCRASQGISSWLAWYQQKPGKAPKFLISGASSLQSGVPSRFSGSGSGTDFTLTISSLQPEDFATYYCQQANSFPWTFGQGTKVEFK
notes: as for B1
B6: 75110_04K10A (antibody, V domains shown)
VH: EVQLVESGGGLVQPGGSLRLSCAASGFTFSSYWMSWVRQAPGKGLEWVANINQDGSEKYYVDSVKGRFTISRDNAKNSLYLQLNSLRAEDTAMYYCAREGGQWLSLDYWGQGTLVTVSS
VL: DIQMTQSPSSVSASVGDRVTITCRASQGISSWLAWYQQKPGKAPKVLIYGVSSFQSGVPSRFSGSGSGTDFILTISSLQPEDFATYYCQQANSFPWTFGQGTKVEIK
notes: as for B1
B7: 75110_03D16A (antibody, V domains shown)
VH: EVQLVESGGGLVQPGGSLRLSCAASGFTFSSYWMSWVRQAPGKGLEWVANINQDGGEKYYVDSVKGRFTISRDNAKNSLYLQMNSLRAEDTAVYYCVREGGQWLALDYWGQGTLVTVSS
VL: DIQMTQSPSSVSASVGDRVTITCRASQGISSWLTWYQQKPGKAPKFLIYAASSLQSGVPSRFSGSGFGTDFTLTISSLQPEDFATYYCQQANSFPWTFGQGTKVEIK
notes: as for B1
B8: 75110_04F22A (antibody, V domains shown)
VH: EVQLVESGGGLVQPGGSLRLSCAASGFTFSSYDIHWVRQATGKGLEWVSTIGTAGDTYYPGSVKGRFTISRENAKNSLYLQMNSLRAGDTAVYYCARGGYYYYGMDVWGQGTTVTVSS
VL: EIVLTQSPGTLSLSPGERATLSCRASQSVYSSYLAWYQQKPGQAPRLLIYGASSRATGIPDRFSGSGSGTDFTLTISRLEPEDFAVYYCQQFGTSPFTFGPGTKVDIK
notes: as for B1
B9: 75110_01E08A (antibody, V domains shown)
VH: EVQLVESGGGLVQPGGSLRLSCAASGFTFNNYDMHWVRQATGKGLEWVSTIGTAGDTYYPASVKGRFTIYRENAKNSLYLQMNSLRAGDTAVYYCARGGDYYYGMDVWGQGTTVTVSS
VL: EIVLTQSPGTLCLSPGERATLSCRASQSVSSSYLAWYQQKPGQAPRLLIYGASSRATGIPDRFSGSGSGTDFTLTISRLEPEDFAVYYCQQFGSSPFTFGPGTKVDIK
notes: as for B1
B10: 75110_01J17A (antibody, V domains shown)
VH: EVQLVESGGGLVQPGGSLRLSCAASGFTFSSYDMHWVRQGTGKGLEWVSTIGTADDTYYPGSVKGRFTISRENAENSLYLQMNSLRAGDTAVYYCARGGDYYYGMDVWGQGTTVTVSS
VL: EIVLAQSPGTLSLSPGERATLSCRASQSVYISYLAWYQQKPGQAPRLLIYGASSRATGIPDRFSGSGSGTDFTLTITRLEPEDFAVYYCQQFGSSPFTFGPGTKVDFK
notes: as for B1
B11: 75110_01N04A (antibody, V domains shown)
VH: EVQLVESGGGLVQPGGSLRLSCAASGFTFSNYDMHWVRQATGKGLEWVSTIGTAGDTYYPGSVKGRFTISRENAKNSLYLQMNSLRAGDTAVYYCARGGDFYYGLDVWGQGTTVTVSS
VL: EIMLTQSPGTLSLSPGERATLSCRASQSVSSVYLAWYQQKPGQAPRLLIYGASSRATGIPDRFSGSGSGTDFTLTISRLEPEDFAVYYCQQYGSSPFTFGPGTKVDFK
notes: as for B1
B12: 75110_01G11A (antibody, V domains shown)
VH: EVQLVESGGGLVQPGGSLRLSCAASGFTFSSYDMHWVRQATGKGLEWVSTIGTAGDTYYPGSVKGRFTISRENARNSLFLQMNSLRAGDTAVYYCARGGDYYYGMDVWGQGTTVTVSS
VL: EIVLTQSPGTLSLFPGERATLSCRASQNTYSSYLAWYQQKPGQAPRLLIYGASNRATGIPDRFSGSGSGTDFTLTISRLEPEDFAVYYCQQHGTSPFTFGPGTKVDIK
notes: as for B1
B13: 75110_01D24A (antibody, V domains shown)
VH: QVQLQQWGAGLLKPSETLSLTCAVYGGSFSGYYWSWIRQPPGKGLEWIGEINHSGSTNYNPSLKSRVTISVDTSENQFSLKLNSVTAADTAVYYCARLVNWFDPWGQGTLVTVSS
VL: EIQMTQSPSSVSASVGDRVTITCRASQDISNWLAWYQQKPGKAPNLLIFAASSLQTGVPSRFSGSGSGTDFTLTISSLQPDDFATYYCQQANSFPYSFGQGTNLGIK
notes: as for B1
B14: 75110_03L12A (antibody, V domains shown)
VH: QVQLQQWGAGLLKPSETLSLTCAVYGGSFSGYYWSWIRQPPGKGLEWIGEINHSGSTNYNPSLKSRVTISVDTSENQFSLTLISVTAADTAVYYCVRLINWFDPWGQGTLVTVSS
VL: DIQMTQSPSSVSASVGDRVTITCRASQDISNWLAWYQQKPGKAPKLLIFAASSLQSGVPSRFSGSGSGTDFTLTISSLQPDDFATYYCQQANSFPYTFGQGTNLGIK
notes: as for B1
B15: 75110_14I16A (antibody, V domains shown)
VH: QVQLQESGPGLVKPSETLSLTCTVSNGSISSYYWSWIRQSAGKGLEWIGRIYTSGSTNYNPSLKSRVTMLVDTSKNQFSLKLSSVTAADTAVYYCARDREDYYYYGMDVWGQGTTVTVSS
VL: DIQMTQSPSSLSASVGDRVTITCQASHDISNYLNWYQQKPGKAPKLLLYYASNLETGVPSRFSGSGSGTDFTFTITSLQPEDIGTYSCQQYDNLPLTFGGGTKVEIK
notes: Tested as antibody purified from AlivaMab Mouse hybridoma supernatant (human variable domains, kappa; mouse Fc, captured on anti-mouse IgG Fc sensors); also called ADS75110 purified AMM Ab
B16: 75110_13P21A (antibody, V domains shown)
VH: QVQLQQWGAGLLKPSETLSLTCAVSGGSFSGYYWSWIRQPPGKGLEWIGEINHSGSTNCNPSLKSRVTISVDTSNNQFSLKLSSVTAADTAVYYCARVLNYFDYWGQGTLVTVSS
VL: DIQMTQSPSSVSASVGDRVTITCRASPDIANWLAWYQQKPGKAPELLIYAASSLQSGVPSRFSGSGSGTDFTLTISSLQPEDFATYFCQQANSFPLTFGGGTKVESK
notes: as for B15
B17: 75110_14N19A (antibody, V domains shown)
VH: QVQLQESGPGLVKPSETLSLTCTVSGGSISRYYWSWIRQPAGKGLEWIGRICTSENPNYNPALKSRVTMSVDTSKNQFSLKLSSVTAADTAVYYCARELERLNYYGMDVWGQGTTVTVSS
VL: DIQMTQFPSSLSASVGDRVTITCQASQDISNYLNWYQQKPGKAPKLLIYDASNLESGVPSRFSGRGSGTDFTFTISSLQPEDFATFYCQQYDTLPITFGQGTRLEIK
notes: as for B15

One may read the Kd as the free concentration of one partner at which half of the binding sites on the other are occupied at equilibrium, for simple one-to-one binding. For orientation: koff means a measure of how fast the partners let go of each other. A lower koff goes with a long-lived complex. In general, kon refers to the rate constant with which the complex forms. A higher kon goes with fast association.

The target in one assay is T1, Rhesus macaque CD4-HIS (Acro Biosystems, Cat. CD4-C52H7) (rhesus macaque, UniProt P16003 26-390).
T1 construct: Bought reagent; also called Rhesus CD4; rhesus CD4-HIS; not shown: His tag
Nature of the assay: BLI Octet, mAb on anti-mouse Fc sensor, rhesus CD4-HIS 25-100 nM, 1:1 global fit.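 Note: purified antibodies captured at 10 µg/mL, rhesus CD4 analyte run as a three-concentration serial dilution, irrelevant antibody as reference control, one kinetic constant set per antibody from global fitting.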 For orientation: Biolayer interferometry detects binding as a change in optical thickness at a sensor tip.
B1 displayed a Kd of 7.8 nM, a Response of 0.39, a koff of 0.001 s⁻¹ and a kon of 130000 M⁻¹ s⁻¹.
B2 gave a Kd of 130 nM, a Response of 0.11, a koff of 0.017 s⁻¹ and a kon of 130000 M⁻¹ s⁻¹.
Molecule B3 displayed a Kd of 70 nM, a Response of 0.17, a koff of 0.0032 s⁻¹ and a kon of 46000 M⁻¹ s⁻¹.
Regarding B4, the Kd is 9.8 nM, the Response was 0.18, the koff was 0.0027 s⁻¹ and the kon stood at 280000 M⁻¹ s⁻¹.
B5 showed a Kd of 14 nM, a Response of 0.29, a koff of 0.0026 s⁻¹ and a kon of 190000 M⁻¹ s⁻¹.
The corresponding values for B6 are 48 nM, 0.17, 0.0032 s⁻¹ and 67000 M⁻¹ s⁻¹.
For B7 the same measures were 12 nM, 0.1, 0.002 s⁻¹ and 160000 M⁻¹ s⁻¹.
In turn, B8 had a Kd of 7.2 nM, a Response of 0.04, a koff of 0.0011 s⁻¹ and a kon of 150000 M⁻¹ s⁻¹.
The corresponding values for B9 are 0.98 nM, 0.1, 0.00014 s⁻¹ and 140000 M⁻¹ s⁻¹.
The corresponding values for B10 are 22 nM, 0.05, 0.0017 s⁻¹ and 79000 M⁻¹ s⁻¹.
The molecule B11 displayed a Kd of 0.035 nM, a Response of 0.02, a koff of 0.0061 s⁻¹ and a kon of 1.7e+08 M⁻¹ s⁻¹.
On to B12, for which the affinity, expressed as Kd, was 64 nM; the Response stood at 0.03; the off-rate constant (koff) was determined as 0.0018 s⁻¹; the kon turned out to be 28000 M⁻¹ s⁻¹.
Molecule B13 yielded a Kd of 340 nM, a Response of 0.08, a koff of 0.064 s⁻¹ and a kon of 190000 M⁻¹ s⁻¹.
For B14 the same measures were 72 nM, 0.08, 0.016 s⁻¹ and 220000 M⁻¹ s⁻¹.

The next assay deals with T2, Rhesus macaque CD4-HIS (Acro Biosystems, Cat. CD4-C52H7) (rhesus macaque, UniProt P16003 26-390).
T2 construct: Bought reagent; also called Rhesus CD4; rhesus CD4-HIS; not shown: His tag
Nature of the assay: BLI (Octet Red384); Ab on anti-mouse Fc (AMC) sensor; rhesus CD4-HIS 100/50/25 nM; global 1:1 fit.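 Note: antibodies loaded at 10 µg/mL, an unrelated mouse-derived antibody served as internal reference, curves fit over association and dissociation phases.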
B15 showed a Kd of 14 nM, a Response of 0.13, a koff of 0.0027 s⁻¹ and a kon of 190000 M⁻¹ s⁻¹.
B16 returned a Kd of 75 nM, a Response of 0.11, a koff of 0.013 s⁻¹ and a kon of 170000 M⁻¹ s⁻¹.
B17 returned a Kd of 14 nM, a Response of 0.17, a koff of 0.0021 s⁻¹ and a kon of 150000 M⁻¹ s⁻¹.
